Experimental data taken from US5688912A, “Peptide ligands which bind to von willebrand factor” (Bayer Corporation, priority 1995, dated 1997).
No end group written: not given here.

What was measured:
Type in all cases: binding
[1] = biological target: T1, von Willebrand Factor (vWF) (Homo sapiens, UniProt P04275); assay: Peptide-Toyopearl affinity column chromatography of Koate; vWF in fractions by ELISA, protein by A280; set-up: Koate® containing vWF, FVIII, and albumin was a product of Bayer Corp; tissue Bayer Corp. (Clayton, N.C.) Koate; host or cells: plasma-derived concentrate (Koate); conditions: for % vWF by ELISA, flow through / % area of acid peak / % vWF by ELISA, acid / % vWF by ELISA, salt: Table 2; for % vWF by ELISA, flow through / % area of acid peak: 1 ml column; for % area of acid peak: 2% acetic acid peak; for % vWF by ELISA, salt: NaCl gradient eluate
Description: The gel slurry (1 ml wet gel mixed with 2 ml degassed PBS and 1 M sodium chloride buffer) was transferred into a packing device (from PerSeptive Biosystems, Framingham, Mass.) and packed into a PEEK column (0.75 cm×5 cm from Alltech, Deerfield, Ill.) at a flow rate of 8 ml/min. […] The column was washed with at least 4 bed volumes of binding buffer (10 mM HEPES, 100 mM NaCl, 5 mM calcium chloride at pH 7) and elution buffer (2% acetic acid), then equilibrated with binding buffer.
Protein concentrations were monitored by A280 absorbance. Samples were characterized using vWF ELISA. Briefly, anti-vWF antibody (from Accurate Inc. N.Y.) was coated on each well of a microliter plate (96 wells from Corning, N.Y. 14831) overnight using 100 μl solution of antibody diluted 200 times in 0.1M sodium bicarbonate buffer at pH 9.6. Each well was then blocked with 300 μl solution of 1% BSA in PBS for 1 hour at room temperature. The plate was washed 5 times with PBS. Pure vWF and the collected samples were diluted to a concentration range between 0.02 to 0.2 μg/ml using 1 mg/ml BSA in PBS. Each sample (100 μl) was incubated with the anti-vWF coated well for 1 hour at room temperature and the plate was washed 5 times with PBS plus 0.1% Tween 20. A second anti-vWF antibody with horse radish peroxidase (HRP) conjugate (from DAKO, Glostrup, Denmark) at a concentration of 1 to 500 dilution was introduced to each well and incubated for i hour at room temperature. The plate was washed again with PBS plus 0.1% Tween 20 for 5 times. Substrate ABTS (2,2'-azino-bis(3-ethylbenz-thiazoline-6-sulfonic acid)) and H2 O2 were used for the kinetic reading at 410 nm using Bio Kinetics Reader from BioTek (Winooski, Vt.).
Peptide RLRSFY was directly synthesized (25) onto a modified Toyopearl resin (--(β-Ala)2 -Toyopearl) and the resin was packed in a 1 ml column (0.7×2.5 cm). Koate (Bayer's product containing vWF, FVIII and human albumin) was applied to the column at a flow rate of 2 ml/min in binding buffer (10 mM HEPES, 5 mM calcium chloride and 0.1M NaCl, pH 7). After 1 min of washing in binding buffer, a linear gradient from 0.1 to 1M NaCl in HEPES buffer was applied to the column over 5 min. The elution with high salt concentration was maintained for another 1 min, before 2% acetic acid was used to elute the retained protein. […] The remainder was eluted using 2% acetic acid. In a control experiment in which no peptide was attached to the resin (only --(β-Ala)2 -Toyopearl), almost all protein from 0.1 ml Koate flowed through the column under the same conditions used for the peptide-Toyopearl column.
Single conservative amino acid substitutions at the first three positions of RLRSFY were synthesized directly on (β-Ala)2 -Toyopearl. Amino acid substitutions used for both positions of arginine (R) were histidine (H), lysine (K), glutamine (Q), and asparagine (N). Substitutions for leucine (L) include isoleucine (I), valine (V), phenylalanine (F), and tyrosine (Y). These individual substitutions created 12 unique peptide sequences. (SEQ ID NOS: 1 to 12 ) After the resins were packed into 1 ml glass columns, 0.1 ml Koate was applied to each column and eluted with sodium chloride gradient and 2% acetic acid, same as in FIG. 1. Fractions were collected and analyzed for A280 absorbance and ELISA. […] The substitution of the R at the third position from the N-terminus had no effect on the capture of vWF from Koate. […] Maximum vWF binding occurred when L was substituted for V.

[2] = biological target: T1, von Willebrand Factor (vWF); assay: as above; set-up: Koate® containing vWF, FVIII, and albumin was a product of Bayer Corp; tissue Bayer Corp. (Clayton, N.C.) Koate; host or cells: plasma-derived concentrate (Koate); conditions: for percentage of vWF eluted: 0.5M calcium chloride
[3] = biological target: T1, von Willebrand Factor (vWF); assay: Purification of vWF from cryoprecipitate PEG filtrate of human plasma on peptide-Toyopearl column
Description: The starting material called PEG filtrate was processed from human plasma cryoprecipitate at Bayer Corp. (Clayton, N.C.). This material contained vWF, FVIII, significant fibrinogen, fibronectin, and IgM. The PEG filtrate was treated with 1% TNBP (tri-n-butylphosphate) and 0.5 % Tween 20 (from Aldrich) at 30° C. for 3 hours. After the treatment, the mixture was directly injected onto peptide affinity columns.
Confirmation of the purification of vWF on RVRSFY-Toyopearl was performed using PEG filtrate as the starting material (FIG. 2). Inclusion of a 0.15M NaCl wash and an additional 0.35M NaCl wash removed the bulk of the albumin. Bound vWF was eluted with 2% acetic acid.
The PEG filtrate was treated with virus inactivation reagents, 1% TNBP and 0.5% Tween 20 at 30° C. for 3 hours. The treated PEG fitrate was injected directly into the column. […] Approximately 74% of the total vWF was eluted with 0.35M CaCl2 (small peak at 10 min).

[4] = biological target: T1, von Willebrand Factor (vWF); assay: Batch adsorption isotherm of vWF onto peptide-Toyopearl, Langmuir fit; set-up: Koate® containing vWF, FVIII, and albumin was a product of Bayer Corp; tissue Bayer Corp. (Clayton, N.C.) Koate; host or cells: plasma-derived concentrate (Koate)
Description: Adsorption isotherms were measured in a batch mode. In a siliconized microcentrifuge tube, 0.1 ml wet gel was mixed with vWF solution of 10 mM HEPES, 5 mM calcium chloride and 0.5M sodium chloride at pH 7 in a total volume of 0.3 ml. The microcentrifuge tube was incubated at 25° C. for 20 minutes, then the gel was separated from the solution by microcentrifugation. The concentrations of vWF in solutions were measured both by absorbance at 280 nm with an extinction coefficient of 1.2 for 1 mg/ml vWF and by ELISA.
Interactions between RVRSFY directly synthesized on Toyopearl and vWF were studied through adsorption isotherm measurements. Because vWF consists of a wide range of molecular weights, complex theoretical analyses are required to obtain binding constants from the adsorption isotherms. In addition, different multimers of vWF may have different binding constants. To simplify the analyses, vWF with molecular weight around 1000 kDa was fractionated from Koate using size exclusion chromatography with Bio-Gel A-5M gel (BioRad) and analyzed by nonreducing agarose gel electrophoresis.
An increase of peptide density increases adsorption of vWF. A minimum peptide density, 32 mg peptide Ac-RVRSFYK/ml resin ([…]), is required for the binding of vWF to the peptide. The Langmuir equation was used to fit these isotherms, and the association constants and maximum capacities obtained from curve fits are listed in Table 3. They show an increase of association constant and maximum binding capacity with an increase of peptide density mobilized on the Toyopearl resin.

Ac-RVRSFYK-amide (Ac-RVRSFYK-NH2) [Ac-RVRSFYK-Toyopearl, peptide immobilized to Toyopearl-Epoxy-650M resin through the C-terminal lysine]
vWF recovered in all fractions (ELISA) ([1]; 0.1 ml Koate, 0.4 ml column, 54 mg/ml peptide): 87.8%
percentage of vWF eluted ([1]; 0.5M calcium chloride, 30° C.): 89%
vWF captured by the peptide column ([1]; Koate, between pH 6 and 7): about 95%
vWF captured by the peptide column ([1]; Koate, solution pH 5): 91%
captured vWF eluted ([1]; calcium and magnesium concentrations higher than 0.3M): about 80%
release of captured vWF by salt elution ([1]; elution with 2M NaCl, Koate): not released
total vWF in the CaCl2 fraction (ELISA) ([2]; 0.1 ml Koate, 0.4 ml column, 54 mg/ml peptide, 0.5M CaCl2): 82.5%
percentage of vWF eluted ([2]; 22° C.): 80%
percentage of vWF eluted ([2]; 26° C.): 85%
vWF captured by the peptide column ([2]; Koate, solution pH 4.6): 65%
total vWF eluted ([3]; PEG filtrate treated with TNBP/Tween 20, 54 mg/ml peptide, eluted with 0.35M CaCl2): Approximately 74%
Association constant ([4]; peptide density 32 mg/ml): 882000 M⁻¹
Maximum capacity ([4]; peptide density 32 mg/ml): 2.32 mg/mL
Association constant ([4]; peptide density 45 mg/ml): 1.12e+06 M⁻¹
Maximum capacity ([4]; peptide density 45 mg/ml): 7.3 mg/mL
Association constant ([4]; peptide density 54 mg/ml): 1.68e+06 M⁻¹
Maximum capacity ([4]; peptide density 54 mg/ml): 9.7 mg/mL
Association constant ([4]; peptide density 60 mg/ml): 2.06e+06 M⁻¹
Maximum capacity ([4]; peptide density 60 mg/ml): 10.33 mg/mL

RVRSFY (not fully specified (C-terminus))
% vWF by ELISA, flow through ([1]; 0.1 ml Koate): 0.09%
% area of acid peak ([1]; 0.1 ml Koate): 30.2%
% vWF by ELISA, acid ([1]; 2% acetic acid eluate): 55.78%
% vWF by ELISA, salt [1]: 0.08%
purification of vWF (SDS-PAGE) ([3]; PEG filtrate, 0.15M and 0.35M NaCl washes, 2% acetic acid elution): highly purified
Association constant ([4]; vWF around 1000 kDa, peptide directly synthesized on Toyopearl, Langmuir fit): 1.31e+06 M⁻¹

NLRSFY (not fully specified (C-terminus))
% vWF by ELISA, flow through ([1]; 0.1 ml Koate): 19.96%
% area of acid peak ([1]; 0.1 ml Koate): 14.8%
% vWF by ELISA, acid ([1]; 2% acetic acid eluate): 6.98%
% vWF by ELISA, salt [1]: 11.88%

KLRSFY (not fully specified (C-terminus))
% vWF by ELISA, flow through ([1]; 0.1 ml Koate): 1.03%
% area of acid peak ([1]; 0.1 ml Koate): 27.1%
% vWF by ELISA, acid ([1]; 2% acetic acid eluate): 26.94%
% vWF by ELISA, salt [1]: 9.83%

RIRSFY (not fully specified (C-terminus))
% vWF by ELISA, flow through ([1]; 0.1 ml Koate): 1.92%
% area of acid peak ([1]; 0.1 ml Koate): 28.0%
% vWF by ELISA, acid ([1]; 2% acetic acid eluate): 44.78%
% vWF by ELISA, salt [1]: 4.09%

HLRSFY (not fully specified (C-terminus))
% vWF by ELISA, flow through ([1]; 0.1 ml Koate): 0.75%
% area of acid peak ([1]; 0.1 ml Koate): 26.7%
% vWF by ELISA, acid ([1]; 2% acetic acid eluate): 32.7%
% vWF by ELISA, salt [1]: 0.28%

RFRSFY (not fully specified (C-terminus))
% vWF by ELISA, flow through ([1]; 0.1 ml Koate): 0.20%
% area of acid peak ([1]; 0.1 ml Koate): 27.8%
% vWF by ELISA, acid ([1]; 2% acetic acid eluate): 47.96%
% vWF by ELISA, salt [1]: 0.07%

RLHSFY (not fully specified (C-terminus))
% vWF by ELISA, flow through ([1]; 0.1 ml Koate): 1.77%
% area of acid peak ([1]; 0.1 ml Koate): 24.9%
% vWF by ELISA, acid ([1]; 2% acetic acid eluate): 50.72%
% vWF by ELISA, salt [1]: 2.89%

RYRSFY (not fully specified (C-terminus))
% vWF by ELISA, flow through ([1]; 0.1 ml Koate): 1.65%
% area of acid peak ([1]; 0.1 ml Koate): 27.1%
% vWF by ELISA, acid ([1]; 2% acetic acid eluate): 51.72%
% vWF by ELISA, salt [1]: 0.14%

RLRSFY (not fully specified (C-terminus)) [RLRSFY-Toyopearl, phage-library-derived peptide directly synthesized onto modified Toyopearl resin (--(β-Ala)2-Toyopearl)]
protein that did not bind to the peptide resin or was loosely bound and eluted by sodium chloride ([1]; 0.1 ml Koate): about 60%
A280, flow through ([1]; 0.1 ml Koate (input A280 7.8), flow through fraction ×4 ml): 0.071
A280, acid ([1]; 0.1 ml Koate, 2% acetic acid fraction ×4 ml): 0.070
A280, salt ([1]; 0.1 ml Koate, NaCl gradient 0.1 to 1M fraction ×12 ml): 0.014
vWF recovered in the acid peak ([1]; Koate, 2% acetic acid): Approximately one-half
retention of vWF by column ([1]; Koate, could not be eluted by sodium chloride up to 1M): Most of the vWF was retained
% vWF activity by ELISA, acid ([1]; Table 1, 0.1 ml Koate, 2% acetic acid eluate): 49.78%
% vWF activity by ELISA, salt ([1]; Table 1, 0.1 ml Koate, NaCl eluate): 0.09%
% vWF activity by ELISA, flow through ([1]; Table 1, 0.1 ml Koate, flow through): 1.6%
% recovery (A280 mass balance) ([1]; total protein recovered from column): 95%

QLRSFY (not fully specified (C-terminus))
% vWF by ELISA, flow through ([1]; 0.1 ml Koate): 29.45%
% area of acid peak ([1]; 0.1 ml Koate): 9.2%
% vWF by ELISA, acid ([1]; 2% acetic acid eluate): 2.20%
% vWF by ELISA, salt [1]: 11.69%

RLKSFY (not fully specified (C-terminus))
% vWF by ELISA, flow through ([1]; 0.1 ml Koate): 0.60%
% area of acid peak ([1]; 0.1 ml Koate): 25.1%
% vWF by ELISA, acid ([1]; 2% acetic acid eluate): 45.58%
% vWF by ELISA, salt [1]: 3.59%

RLNSFY (not fully specified (C-terminus))
% vWF by ELISA, flow through ([1]; 0.1 ml Koate): 0.26%
% area of acid peak ([1]; 0.1 ml Koate): 24.5%
% vWF by ELISA, acid ([1]; 2% acetic acid eluate): 47.68%
% vWF by ELISA, salt [1]: 1.50%

RLQSFY (not fully specified (C-terminus))
% vWF by ELISA, flow through ([1]; 0.1 ml Koate): 0.46%
% area of acid peak ([1]; 0.1 ml Koate): 20.1%
% vWF by ELISA, acid ([1]; 2% acetic acid eluate): 50.68%
% vWF by ELISA, salt [1]: 0.54%
